Laboratory results: US20180155451A1 (published 2018)
Changes are numbered by the printed parent chain. Names and notes keep the numbering of the source.

T1: FcγRIIa type H extracellular domain with C-terminal His tag (human, UniProt P12318 34-217)
T1 construct: extracellular domain; also called FcgRIIa H; FcγRIIa H
T1 sequence (looked up): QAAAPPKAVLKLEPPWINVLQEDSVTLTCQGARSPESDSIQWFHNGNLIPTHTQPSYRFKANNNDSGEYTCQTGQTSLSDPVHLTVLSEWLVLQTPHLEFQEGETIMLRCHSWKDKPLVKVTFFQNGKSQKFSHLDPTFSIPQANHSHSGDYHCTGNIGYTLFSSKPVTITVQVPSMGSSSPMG

T2: FcγRIIb extracellular domain with C-terminal His tag (human, UniProt P31994 43-217)
T2 construct: extracellular domain; also called FcgRIIb
T2 sequence (looked up): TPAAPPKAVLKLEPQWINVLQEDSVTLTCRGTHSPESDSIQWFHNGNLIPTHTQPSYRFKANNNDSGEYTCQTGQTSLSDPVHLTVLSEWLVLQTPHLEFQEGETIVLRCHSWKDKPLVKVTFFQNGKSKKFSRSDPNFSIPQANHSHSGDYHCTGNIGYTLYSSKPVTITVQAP

T3: FcγRIIa type R extracellular domain with C-terminal His tag (human, UniProt P12318 34-217)
T3 construct: extracellular domain; also called FcgRIIa R; FcγRIIa R
T3 sequence (looked up): T1 sequence (looked up) with H134R

T4: FcgRIIa R extracellular domain with C-terminal His tag (human, UniProt P12318 34-217)
T4 construct: extracellular domain; also called FcγRIIa R; FcγRIIa type R; not shown: His tag attached to the C terminus
T4 sequence (looked up): T1 sequence (looked up) with H134R

T5: FcgRIIa H extracellular domain with C-terminal His tag (human, UniProt P12318 34-217)
T5 construct: extracellular domain; also called FcγRIIa H; FcγRIIa type H; not shown: His tag attached to the C terminus
T5 sequence (looked up): T1 sequence (looked up)

B1: GpH7-Kn045/GpH7-Hl048/GpL16-k0 (antibody, human IgG1, kappa)
heavy 1: QVQLVQSGAEVKKPGASVTVSCKASGYTFTDYEMHWIRQPPGEGLEWIGAIDPKTGDTAYSESFQDRVTLTADKSTSTAYMELSSLTSEDTAVYYCTRFYSYTYWGQGTLVTVSSASTKGPSVFPLAPSSKSTSGGTAALGCLVKDYFPEPVTVSWNSGALTSGVHTFPAVLQSSGLYSLSSVVTVPSSSLGTQTYICNVNHKPSNTKVDKKVEPKSCDKTHTCPPCPAPEYYAGPSVFLFPPKPKDTLMISRTPEVTCVVVDVSDEDPEVKFNWYVDGVEVHNAKTKPREEQYNATYRVVSVLTVLHQDWLNGKEYKCKVSNKALPAPIEKTISKAKGQPREPQVCTLPPSRDELTKNQVSLWCLVKGFYPSDIAVEWESNGQPENNYKTTPPVLDSDGSFFLYSKLTVDKSRWQQGNVFSCSVMHEALHNHYTQKSLSLSP
heavy 2: QVQLVQSGAEVKKPGASVTVSCKASGYTFTDYEMHWIRQPPGEGLEWIGAIDPKTGDTAYSESFQDRVTLTADKSTSTAYMELSSLTSEDTAVYYCTRFYSYTYWGQGTLVTVSSASTKGPSVFPLAPSSKSTSGGTAALGCLVKDYFPEPVTVSWNSGALTSGVHTFPAVLQSSGLYSLSSVVTVPSSSLGTQTYICNVNHKPSNTKVDKKVEPKSCDKTHTCPPCPAPELLAGPDVFLFPPKPKDTLMISRTPEVTCVVVDVSHEDPEVKFNWYVDGVEVHNAKTKPREEQYNSTYRVVSVLTVLHQDWLNGKEYKCKVSNKALPKPEEKTISKAKGQPREPQVYTLPPSRCELTKNQVSLSCAVKGFYPSDIAVEWESNGQPENNYKTTPPVLDSDGSFFLVSKLTVDKSRWQQGNVFSCSVMHEALHNHYTQKSLSLSP
light: DIVMTQSPLSLPVTPGEPASISCQASESLVHSNRNTYLHWYLQKPGQSPQLLIYKVSNRFSGVPDRFSGSGSGTDFTLKISRVEAEDVGVYYCSQNTHVPPTFGQGTKVEIERTVAAPSVFIFPPSDEQLKSGTASVVCLLNNFYPREAKVQWKVDNALQSGNSQESVTEQDSKDSTYSLSSTLTLSKADYEKHKVYACEVTHQGLSSPVTKSFNRGEC
notes: Heterodimerized anti-glypican-3 IgG1; also called Kn045/Hl048
B2: GpH7-Kn056/GpH7-Hl055/GpL16-k0 (antibody, human IgG1, kappa)
heavy 1: B1 heavy 1 with Q293L
heavy 2: B1 heavy 2 with Q293L, K328M
light: B1 light
notes: Heterodimerized anti-glypican-3 IgG1; also called Kn056/Hl055
B3: GpH7-Kn032/GpH7-Hl032/GpL16-k0 (antibody, human IgG1, kappa)
heavy 1: B1 heavy 2 with A234G, K328L, Y347C, C354D, S364W, A366L, V405Y
heavy 2: B1 heavy 2 with A234G, K328L
light: B1 light
notes: also called Kn032/Hl032
B4: GpH7-Kn033/GpH7-Hl033/GpL16-k0 (antibody, human IgG1, kappa)
heavy 1: not shown
heavy 2: not shown
light: B1 light
notes: Anti-glypican-3 IgG1 with knobs-into-holes only (knob Y349C/T366W; hole D356C/T366S/L368A/Y407V); also called Kn033/Hl033

molecular target: T1, FcγRIIa type H extracellular domain …; experiment: SPR (Biacore T100), antibody captured on antigen-peptide chip, FcγR analyte, 1:1 Langmuir fit
Method: (§1) These antibodies were assessed for the binding activity to each FcγR according to the method described in Reference Example 2.
(§2) Analysis of interaction between objective antibody and the FcγR was carried out using Biacore T100 (GE Healthcare). HBS-EP+ (GE Healthcare) was used as the running buffer, and the measurement temperature was set to 25° C. Chips produced by immobilizing the antigen peptide by the amine coupling method to a Series S Sencor Chip CM5 (GE Healthcare), or alternatively, chips produced by allowing preliminarily biotinylated antigen peptides to interact with and immobilize onto a Series S Sensor Chip SA (certified) (GE Healthcare) were used. Antibodies of interest were captured onto an antigen peptide-immobilized chip, and allowed to interact to each FcγR diluted with running buffer. To regenerate and repeatedly use the chip, the antibodies captured on the chip were washed off by reacting 10 mM glycine-HCl, pH 1.5.
(§3) The FcγR-binding activity of each antibody was assessed primarily using as an indicator the FcγR-binding activity and dissociation constant for FcγR.

Kd [nM]	Binder
11	B1
30	B2
470	B3

molecular target: T6, FcγRIIIa type V extracellular domain with C-terminal His tag (human, UniProt P08637 17-208); experiment: as above
T6 construct: extracellular domain; also called FcgRIIIa V; FcγRIIIa V
Method: as §1, §2, §3

T6 sequence (P08637 17-208 F176V): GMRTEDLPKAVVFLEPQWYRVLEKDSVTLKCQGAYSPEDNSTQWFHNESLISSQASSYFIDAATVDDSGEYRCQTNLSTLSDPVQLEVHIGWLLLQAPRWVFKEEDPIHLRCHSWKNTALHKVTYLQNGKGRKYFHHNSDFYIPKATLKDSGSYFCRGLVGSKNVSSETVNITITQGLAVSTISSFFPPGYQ

Kd [nM]	Binder
1.3	B1
0.66	B2
1.2	B3

molecular target: T7, FcγRIa extracellular domain with C-terminal His tag (human, UniProt P12314 16-292); experiment: as above
T7 construct: extracellular domain; also called FcgRIa; FcgRI
Method: as §1, §2, §3

T7 sequence (P12314 16-292): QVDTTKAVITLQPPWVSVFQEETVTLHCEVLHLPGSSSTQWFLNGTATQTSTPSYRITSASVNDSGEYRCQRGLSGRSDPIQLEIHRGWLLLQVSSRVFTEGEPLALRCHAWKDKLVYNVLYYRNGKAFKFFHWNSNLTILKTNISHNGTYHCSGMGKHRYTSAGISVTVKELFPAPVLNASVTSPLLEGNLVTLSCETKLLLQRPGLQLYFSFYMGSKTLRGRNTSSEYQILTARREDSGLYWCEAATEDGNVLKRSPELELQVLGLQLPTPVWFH

Kd [nM]	Binder
0.019	B1
0.023	B2
0.0028	B3

molecular target: T8, FcγRIIIa type F extracellular domain with C-terminal His tag (human, UniProt P08637 17-208); experiment: as above
T8 construct: extracellular domain; also called FcgRIIIa F; FcγRIIIa F
Method: as §1, §2, §3

T8 sequence (P08637 17-208): as the sequence (P08637 17-208 F176V) above, with V160F counted along it

Kd [nM]	Binder
3.7	B1
1.4	B2
4.1	B3

molecular target: T2, FcγRIIb extracellular domain with …; experiment: as above
Method: as §1, §2, §3

Kd [nM]	Binder
110	B1
260	B2
440	B3

molecular target: T3, FcγRIIa type R extracellular domain …; experiment: as above
Method: as §1, §2, §3

Kd [nM]	Binder
4.8	B1
17	B2
250	B3

molecular target: T1, FcγRIIa type H extracellular domain …; experiment: SPR (Biacore T100), ratio of KD values
Method: as §1, §2, §3

KD ratio	Binder
52 fold (KD of GpH7-Kn033/GpH7-Hl033/GpL16-k0 divided by KD of this antibody)	B1
20 fold (KD of GpH7-Kn033/GpH7-Hl033/GpL16-k0 divided by KD of this antibody)	B2
1.2 fold (KD of GpH7-Kn033/GpH7-Hl033/GpL16-k0 divided by KD of this antibody)	B3

molecular target: T6, FcγRIIIa type V extracellular domain …; experiment: SPR (Biacore T100), ratio of KD values
Method: as §1, §2, §3

KD ratio	Binder
170 fold (KD of GpH7-Kn033/GpH7-Hl033/GpL16-k0 divided by KD of this antibody)	B1
327 fold (KD of GpH7-Kn033/GpH7-Hl033/GpL16-k0 divided by KD of this antibody)	B2
182 fold (KD of GpH7-Kn033/GpH7-Hl033/GpL16-k0 divided by KD of this antibody)	B3

molecular target: T7, FcγRIa extracellular domain with …; experiment: SPR (Biacore T100), ratio of KD values
Method: as §1, §2, §3

KD ratio	Binder
3.7 fold (KD of GpH7-Kn033/GpH7-Hl033/GpL16-k0 divided by KD of this antibody)	B1
2.9 fold (KD of GpH7-Kn033/GpH7-Hl033/GpL16-k0 divided by KD of this antibody)	B2
24 fold (KD of GpH7-Kn033/GpH7-Hl033/GpL16-k0 divided by KD of this antibody)	B3

molecular target: T8, FcγRIIIa type F extracellular domain …; experiment: SPR (Biacore T100), ratio of KD values
Method: as §1, §2, §3

KD ratio	Binder
419 fold (KD of GpH7-Kn033/GpH7-Hl033/GpL16-k0 divided by KD of this antibody)	B1
1110 fold (KD of GpH7-Kn033/GpH7-Hl033/GpL16-k0 divided by KD of this antibody)	B2
381 fold (KD of GpH7-Kn033/GpH7-Hl033/GpL16-k0 divided by KD of this antibody)	B3

molecular target: T2, FcγRIIb extracellular domain with …; experiment: SPR (Biacore T100), ratio of KD values
Method: as §1, §2, §3

KD ratio	Binder
34 fold (KD of GpH7-Kn033/GpH7-Hl033/GpL16-k0 divided by KD of this antibody)	B1
14 fold (KD of GpH7-Kn033/GpH7-Hl033/GpL16-k0 divided by KD of this antibody)	B2
8.2 fold (KD of GpH7-Kn033/GpH7-Hl033/GpL16-k0 divided by KD of this antibody)	B3

molecular target: T3, FcγRIIa type R extracellular domain …; experiment: SPR (Biacore T100), ratio of KD values
Method: as §1, §2, §3

KD ratio	Binder
154 fold (KD of GpH7-Kn033/GpH7-Hl033/GpL16-k0 divided by KD of this antibody)	B1
44 fold (KD of GpH7-Kn033/GpH7-Hl033/GpL16-k0 divided by KD of this antibody)	B2
3 fold (KD of GpH7-Kn033/GpH7-Hl033/GpL16-k0 divided by KD of this antibody)	B3

molecular target: T4, FcgRIIa R extracellular domain with …; experiment: ratio of SPR (Biacore) KDs, FcγRIIb as reference; antibody captured on chip, FcγR as analyte
Method: as §1, §2, §3

A/I ratio (KD for FcγRIIb / KD for FcγRIIa R)	Binder
4.9	B4

molecular target: T5, FcgRIIa H extracellular domain with …; experiment: as above
Method: as §1, §2, §3

A/I ratio (KD for FcγRIIb / KD for FcγRIIa H)	Binder
6.2	B4
